Columns and labels:
[1] = molecular target: human plasmin (human, UniProt P00747 97-810, limits assumed); assay: cell-based or functional assay
[2] = molecular target: T1, human plasminogen (human, UniProt P00747 20-810); assay: saturation binding ELISA, human plasminogen coated at 2 ug/ml, one-site hyperbola fit
T1 construct: also called h Pg
Protocol: Saturation binding assay. Saturation binding assays were performed by ELISA in 96-well plates coated with 2 ug/ml of plasmin or plasminogen at room temperature for 1 hour. Wells were washed with PBS-T: (10 mM phosphate buffer pH 7.4, 150 mM NaCl, 0.05% Tween 20) six times. Non-specific protein binding sites were blocked with 1% BSA for 1 hour at room temperature. After washing the plate as above, various concentrations of antibody (0.002 to 100 ug/ml) were added to the plate in duplicate and for 1 hour at room temperature. The plate was washed and horseradish peroxidase (HRP) conjugated goat anti-mouse secondary antibody (1:8000, Santa Cruz, Dallas, Tex.) was added to the plate. After 1 hour incubation at room temperature, the plate was washed and TMB was added. The absorbance was then read at 370 nm.

[3] = molecular target: T2, mouse plasminogen (mouse, UniProt P20918 20-812); assay: ELISA, antigen coated at 10 ug/ml, antibody supernatant, compared with anti-digoxin control
T2 construct: also called mouse (m) Pg
T2 sequence (P20918 20-812 limits assumed): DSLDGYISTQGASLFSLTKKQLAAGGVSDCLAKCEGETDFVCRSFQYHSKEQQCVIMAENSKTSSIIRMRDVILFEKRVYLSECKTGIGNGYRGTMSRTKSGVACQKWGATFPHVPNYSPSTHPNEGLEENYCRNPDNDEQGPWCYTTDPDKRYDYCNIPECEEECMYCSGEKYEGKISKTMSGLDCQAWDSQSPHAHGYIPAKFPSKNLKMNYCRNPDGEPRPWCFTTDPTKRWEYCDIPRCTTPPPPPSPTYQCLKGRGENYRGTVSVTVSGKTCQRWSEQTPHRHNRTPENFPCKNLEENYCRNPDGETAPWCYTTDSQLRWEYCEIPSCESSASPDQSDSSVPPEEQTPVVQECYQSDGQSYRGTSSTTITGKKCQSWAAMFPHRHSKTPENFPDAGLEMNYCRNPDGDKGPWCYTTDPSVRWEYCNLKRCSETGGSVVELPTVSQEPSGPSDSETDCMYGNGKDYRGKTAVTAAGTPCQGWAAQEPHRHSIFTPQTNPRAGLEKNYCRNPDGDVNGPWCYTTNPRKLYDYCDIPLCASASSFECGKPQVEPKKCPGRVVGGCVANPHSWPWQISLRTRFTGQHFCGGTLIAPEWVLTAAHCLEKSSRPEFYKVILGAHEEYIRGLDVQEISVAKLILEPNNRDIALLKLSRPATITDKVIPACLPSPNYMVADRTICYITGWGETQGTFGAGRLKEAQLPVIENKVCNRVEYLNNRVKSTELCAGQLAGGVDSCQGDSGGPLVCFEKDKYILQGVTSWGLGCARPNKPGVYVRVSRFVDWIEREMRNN
Protocol: (§1) Then goat anti mouse antibody conjugated with HRP (1:5000, Sc-2005, Santa Cruz) was then added. The plate was washed after incubation for 1 h. TMB was added to the wells and absorbance at 370nm was recorded.

[4] = molecular target: T3, bovine serum albumin (bovine, UniProt P02769 25-607); assay: as above
T3 construct: also called BSA
T3 sequence (P02769 25-607 limits assumed): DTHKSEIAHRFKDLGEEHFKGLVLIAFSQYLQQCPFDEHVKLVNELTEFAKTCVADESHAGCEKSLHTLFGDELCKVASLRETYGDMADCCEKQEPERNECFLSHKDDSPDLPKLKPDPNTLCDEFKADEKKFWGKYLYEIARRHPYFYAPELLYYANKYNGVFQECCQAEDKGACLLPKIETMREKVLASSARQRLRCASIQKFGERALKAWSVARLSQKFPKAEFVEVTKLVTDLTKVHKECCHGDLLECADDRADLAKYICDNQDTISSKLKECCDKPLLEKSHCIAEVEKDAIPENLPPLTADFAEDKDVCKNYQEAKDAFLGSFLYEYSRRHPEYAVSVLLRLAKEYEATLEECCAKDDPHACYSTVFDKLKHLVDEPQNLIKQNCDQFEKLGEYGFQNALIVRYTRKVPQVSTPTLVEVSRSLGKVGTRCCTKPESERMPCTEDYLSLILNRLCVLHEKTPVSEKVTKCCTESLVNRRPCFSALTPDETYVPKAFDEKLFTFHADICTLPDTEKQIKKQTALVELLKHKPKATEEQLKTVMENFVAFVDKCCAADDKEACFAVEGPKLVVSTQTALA
Protocol: as §1

[5] = molecular target: human tPA (human, UniProt P00750 36-562); assay: as above
human tPA, sequence (P00750 36-562 limits assumed): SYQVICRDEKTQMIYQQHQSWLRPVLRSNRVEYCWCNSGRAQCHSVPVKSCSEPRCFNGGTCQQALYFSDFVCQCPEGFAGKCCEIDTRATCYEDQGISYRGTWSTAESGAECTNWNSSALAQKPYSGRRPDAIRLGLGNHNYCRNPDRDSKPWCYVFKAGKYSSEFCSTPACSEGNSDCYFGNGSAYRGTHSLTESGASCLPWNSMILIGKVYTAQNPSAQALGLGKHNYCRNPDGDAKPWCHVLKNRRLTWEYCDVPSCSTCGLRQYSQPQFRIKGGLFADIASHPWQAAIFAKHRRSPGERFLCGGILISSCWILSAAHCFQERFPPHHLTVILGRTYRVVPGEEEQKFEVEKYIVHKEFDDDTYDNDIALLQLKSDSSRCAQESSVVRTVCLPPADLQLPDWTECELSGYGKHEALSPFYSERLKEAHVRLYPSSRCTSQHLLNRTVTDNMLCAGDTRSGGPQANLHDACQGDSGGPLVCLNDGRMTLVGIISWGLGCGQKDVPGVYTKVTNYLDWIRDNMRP
Protocol: as §1

human plasmin, sequence (P00747 97-810 limits assumed): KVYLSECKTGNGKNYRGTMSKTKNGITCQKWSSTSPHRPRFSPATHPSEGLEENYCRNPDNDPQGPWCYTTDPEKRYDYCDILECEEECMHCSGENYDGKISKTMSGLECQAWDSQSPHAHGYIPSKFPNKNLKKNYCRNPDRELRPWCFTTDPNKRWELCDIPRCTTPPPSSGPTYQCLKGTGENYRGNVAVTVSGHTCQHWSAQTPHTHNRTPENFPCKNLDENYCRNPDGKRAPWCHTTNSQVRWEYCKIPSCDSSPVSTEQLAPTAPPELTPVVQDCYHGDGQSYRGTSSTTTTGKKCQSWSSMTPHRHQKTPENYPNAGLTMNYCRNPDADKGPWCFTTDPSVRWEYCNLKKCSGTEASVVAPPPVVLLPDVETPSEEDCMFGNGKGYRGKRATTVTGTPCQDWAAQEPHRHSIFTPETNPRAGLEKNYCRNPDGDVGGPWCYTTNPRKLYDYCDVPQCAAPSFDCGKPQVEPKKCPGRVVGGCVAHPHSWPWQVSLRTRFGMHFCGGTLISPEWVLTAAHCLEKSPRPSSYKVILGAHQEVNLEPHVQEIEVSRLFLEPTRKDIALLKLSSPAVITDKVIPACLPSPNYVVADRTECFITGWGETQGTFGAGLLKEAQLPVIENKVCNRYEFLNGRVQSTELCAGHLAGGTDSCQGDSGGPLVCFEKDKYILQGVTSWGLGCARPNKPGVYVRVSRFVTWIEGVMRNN
T1 sequence (P00747 20-810 limits assumed): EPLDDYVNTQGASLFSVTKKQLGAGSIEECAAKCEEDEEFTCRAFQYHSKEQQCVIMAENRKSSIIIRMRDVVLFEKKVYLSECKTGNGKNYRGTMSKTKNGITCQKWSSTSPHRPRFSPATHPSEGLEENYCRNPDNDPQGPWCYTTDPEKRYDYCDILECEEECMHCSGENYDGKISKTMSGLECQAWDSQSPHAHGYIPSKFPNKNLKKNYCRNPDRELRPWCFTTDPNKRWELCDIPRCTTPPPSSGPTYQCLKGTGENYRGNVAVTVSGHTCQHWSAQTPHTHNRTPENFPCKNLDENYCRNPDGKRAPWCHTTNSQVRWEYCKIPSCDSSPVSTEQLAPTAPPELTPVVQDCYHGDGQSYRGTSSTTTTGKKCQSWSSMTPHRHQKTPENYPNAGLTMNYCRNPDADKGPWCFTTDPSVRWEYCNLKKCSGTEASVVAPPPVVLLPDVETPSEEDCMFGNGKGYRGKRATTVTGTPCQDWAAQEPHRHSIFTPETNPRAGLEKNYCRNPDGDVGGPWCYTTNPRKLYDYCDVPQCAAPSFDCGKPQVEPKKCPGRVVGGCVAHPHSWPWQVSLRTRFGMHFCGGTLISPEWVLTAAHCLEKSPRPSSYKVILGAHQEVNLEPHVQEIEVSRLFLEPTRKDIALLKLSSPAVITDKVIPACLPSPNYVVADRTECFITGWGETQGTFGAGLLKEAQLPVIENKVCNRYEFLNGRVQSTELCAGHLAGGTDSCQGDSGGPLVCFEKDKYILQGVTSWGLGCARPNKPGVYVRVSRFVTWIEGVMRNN

plasmin-mediated fibrinolysis of human fibrin clots (125I-fibrin release, tPA) [1]: ~5000 fold more potent than EACA
Kd [2]: 3.4 nM
binding result [3]: no binding
binding result [4]: no binding
binding result [5]: no binding
B1: monoclonal antibody plasmin inhibitor (Pi) (antibody, mouse IgG1, kappa, V domains shown)
VH: EVKLLESGGGLVQPGGSLKLSCAASGFDFSRYWMSWVRQAPGKGLEWIGEINPDSSTINYTPSLKDKFIISRDNAKNSLYLQMSKVRSEDTALYYCASYCGYSYDALDCWGQGTSVTVSS
VL: DIQMTQSPSSLSASLGGKVSITCKASQDINKYISWYQHKPGKGPRLLIHYTSTLQPGIPSRFSGSGSGRDYSFSISNLEPEDIATYYCLQYDNLYTFGGGTKLEIKR
notes: Mouse hybridoma IgG purified from supernatant; also called Pi IgG; Pi MAb38

Reference: patent publication US20190085097A1 (published 2019)
